Data published in article PMC4278905, “Differential Binding of Lef1 and Msx1/2 Transcription Factors to Dkk1 CNEs Correlates with Reporter Gene Expression In Vivo”.

B1: CNE195Mut(TCF/Lef) (dsDNA)
DNA 1: ATGAATGAAACTTGAATTCGCAAGGGTCA
DNA 2: TGACCCTTGCGAATTCAAGTTTCATTCAT
B2: CNE195 Tcf/Lef (dsDNA)
DNA 1: ATGAATGAAACTTCAAAGGGCAAGGGTCA
DNA 2: TGACCCTTGCCCTTTGAAGTTTCATTCAT

Target: Lef1 (UniProt P27782 1-397)
Assay: EMSA; 100 ng Lef1, 5 mM Mg2+, 1 ug poly(dI-dC); 20 mM Hepes pH 7.9, 60 mM KCl, 1 mM EDTA, 1 mM DTT, 5 mM MgCl2, 10% glycerol, 1 ug poly(dI-dC), 30 min on ice; 5% native PAGE, 0.5x TBE, 4 C
Conditions: protein: recombinant; tags: GST removed by thrombin (pGEX4T-1); label: 32P (T4 PNK, 5' end); blunt

Lef1, sequence (P27782 whole entry): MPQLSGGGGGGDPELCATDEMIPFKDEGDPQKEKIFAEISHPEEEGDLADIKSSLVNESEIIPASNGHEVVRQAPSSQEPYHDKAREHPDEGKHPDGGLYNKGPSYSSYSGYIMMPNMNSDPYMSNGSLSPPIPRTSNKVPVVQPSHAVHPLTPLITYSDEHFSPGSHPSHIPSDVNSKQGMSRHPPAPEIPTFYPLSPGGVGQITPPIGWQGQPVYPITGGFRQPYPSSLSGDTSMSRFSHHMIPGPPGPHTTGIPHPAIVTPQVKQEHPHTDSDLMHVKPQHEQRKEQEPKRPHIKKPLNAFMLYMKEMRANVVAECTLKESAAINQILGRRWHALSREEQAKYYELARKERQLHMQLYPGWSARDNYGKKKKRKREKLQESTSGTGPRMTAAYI

Row | Binder | binding result
1 | B1 | no binding
2 | B2 | binds
